Results as given in US20260069679A1.
Where two headings read alike, the source gives them in different places.

Key:
[1] = biological target: MERS SS antigen (MERS-CoV EMC/2012) (UniProt K9N5Q8)
[2] = biological target: MERS [change]\u0394RBD antigen (MERS-CoV EMC/2012); assay: BLI, 1:1 fit
SS-L2-Aferr = assay: BLI, 1:1 fit
[3] = biological target: MERS SS antigen (MERS-CoV EMC/2012) (UniProt K9N5Q8); assay: BLI, 1:1 fit
SS[change] = assay: BLI, 1:1 fit
[4] = biological target: MERS SS antigen (MERS-CoV EMC/2012) (UniProt K9N5Q8); remark: listed apart in the source

| Substance | maximum binding [1] | Kd [2] | kon [2] | Kd (SS-L2-Aferr) | kon (SS-L2-Aferr) | Kd [3] | kon [3] | Kd (SS[change]) | kon (SS[change]) | Kd [4] |
| --- | --- | --- | --- | --- | --- | --- | --- | --- | --- | --- |
| G4 (antibody) | 0.43 nm | 6.71 pM | 67400 M⁻¹ s⁻¹ | 2.38 pM | 205000 M⁻¹ s⁻¹ | 8.1 pM | 52200 M⁻¹ s⁻¹ | 2.79 pM | 175000 M⁻¹ s⁻¹ | 550 pM |
| CC40.8 (antibody) | – | – | – | 312 pM | 229000 M⁻¹ s⁻¹ | – | – | 1690 pM | 205000 M⁻¹ s⁻¹ | – |
